Results taken from patent US20240270860A1.

Target: T1, S03933
T1 chain: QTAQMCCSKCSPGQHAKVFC
Test: linear peptide ELISA; Affinity +
Details: remark: other sources report otherwise

B1: antagonistic TNFR2 antibody TNFRAB1 (antibody, V domains shown)
VH: EVQLQESGGGLVKPGGSLKLSCAASGFTFSSYVMSWVRQTPEKRLEWVATISSGGSYTYYPDSVKGRFTISRDNAKNTLYLQMSSLRSEDTAMYYCARQRVDGYSSYWYFDVWGAGTAVTVSS
VL: DIVLTQSPAIMSASPGEKVTITCSASSSVYYMYWFQQKPGTSPKLWIYSTSNLASGVPVRFSGSGSGTSYSLTISRMEAEDAATYYCQQRRNYPYTFGGGTKLEIKRA
Work on B1 yielded a Reading of 0.1.
